Reference: patent US20210210159A1, “COMPUTATIONAL PROTEIN DESIGN USING TERTIARY OR QUATERNARY STRUCTURAL MOTIFS” (Trustees of Dartmouth College, priority 2018, published 2021)

Key:
[1] = Chemical denaturation by guanidinium hydrochloride (GuHCl), chromophore absorbance at 587 nm; assay type: physicochemical; conditions: compared with original mCherry
Description: Degree of foldedness was monitored via chromophore absorbance at 587 nm. Because the chromophore rapidly […], this constitutes a sensitive metric of structure. Data are fit to the Hill equation, with the concentration of half denaturation noted in the legend.
Thus, by all measures, the designed protein, which differs from the original mCherry in 48 positions, preserved the starting structure and even function.

[2] = Fast Protein Liquid Chromatography / size-exclusion chromatography, oligomeric state; assay type: physicochemical; conditions: concentration of at least 10 μM
Description: Based on the standards, the dimeric protein would be expected to elute at the volume indicated by a dotted line, which eliminates the possibility of design oligomerization.

B1: design: TERM-based surface-redesigned mCherry, 48 of 64 variable surface positions changed (SEQ ID NO. 2) (protein)
chain: MVSKGEEDNMAIIKEFMTFEVEMEGTVNGHPFRIRGSGGGDPYEGTQTARLEVVEGGPLPFAWDILSPQFMYGSKAYVKHPADIPDYLKLSFPEGFTWTRTMEFEDGGTVKVTQTSTLKDGKFHYKVKLTGSNFPSDGPVMQKKTMGWEASTERMRPKDGKLEGEIDQELRLKDGGYYRARVRTTYKAKKPVQLPGAYTVRIRLEITSHNEDYTEVEQTETAKGEHSTGGMDELYK
modifications: TERM-based designed sequence
- protection of chromophore on chemical denaturation [1]: approximately as well as the original mCherry
- oligomeric state in solution [2]: monomeric
